The target in test [1] is T1, AT3G49850.1 TRB3 (Arabidopsis thaliana, UniProt Q9M2X3 1-295).
T1 construct: Endogenous protein found by mass spectrometry
T1 sequence: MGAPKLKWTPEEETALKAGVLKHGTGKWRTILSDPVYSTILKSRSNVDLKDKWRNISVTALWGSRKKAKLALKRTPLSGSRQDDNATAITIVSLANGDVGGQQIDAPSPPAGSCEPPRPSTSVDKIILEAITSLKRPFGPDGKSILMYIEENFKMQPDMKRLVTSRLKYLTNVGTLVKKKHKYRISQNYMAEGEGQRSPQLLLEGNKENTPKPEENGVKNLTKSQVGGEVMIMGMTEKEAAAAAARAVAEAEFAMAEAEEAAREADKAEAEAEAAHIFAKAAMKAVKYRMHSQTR
In words: IP-MS rep 1. In short, it runs like this: (§1)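 Peptide counts for co-purified proteins come from mass spectrometry of proteins pulled down from Arabidopsis floral buds with anti-FLAG magnetic beads. Ten grams of unopened buds from wild-type and FLAG-tagged transgenic lines were ground in liquid nitrogen and homogenised in 25 mL IP buffer. Lysates were held with 250 μL anti-FLAG M2 magnetic beads at 4° C for 2 hours, and bound proteins were eluted in TBS with 250 μg/mL 3×FLAG peptides.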

Test [2] has as its target T2, AT5G67580.1 TRB2 (Arabidopsis thaliana, UniProt Q9FJW5 1-299).
T2 construct: Endogenous protein found by mass spectrometry
T2 sequence: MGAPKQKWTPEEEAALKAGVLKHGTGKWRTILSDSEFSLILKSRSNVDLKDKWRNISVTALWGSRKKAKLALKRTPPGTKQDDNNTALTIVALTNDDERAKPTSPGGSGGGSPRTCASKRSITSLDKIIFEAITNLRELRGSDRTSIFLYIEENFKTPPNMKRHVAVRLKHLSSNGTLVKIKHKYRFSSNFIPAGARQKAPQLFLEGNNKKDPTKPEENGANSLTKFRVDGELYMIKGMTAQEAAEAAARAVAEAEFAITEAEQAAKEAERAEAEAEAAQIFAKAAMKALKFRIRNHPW
Description: IP-MS rep 1. In short, it runs like this:
as §1

The target of test [3] is T3, AT5G08450.1 HDC1 (Arabidopsis thaliana).
T3 construct: Endogenous protein found by mass spectrometry
Description: IP-MS rep 1. In short, it runs like this: as §1

The target in test [4] is T4, AT1G49950.3 TRB1 (Arabidopsis thaliana, UniProt Q8VWK4 1-300, limits assumed).
T4 construct: Endogenous protein found by mass spectrometry
T4 sequence: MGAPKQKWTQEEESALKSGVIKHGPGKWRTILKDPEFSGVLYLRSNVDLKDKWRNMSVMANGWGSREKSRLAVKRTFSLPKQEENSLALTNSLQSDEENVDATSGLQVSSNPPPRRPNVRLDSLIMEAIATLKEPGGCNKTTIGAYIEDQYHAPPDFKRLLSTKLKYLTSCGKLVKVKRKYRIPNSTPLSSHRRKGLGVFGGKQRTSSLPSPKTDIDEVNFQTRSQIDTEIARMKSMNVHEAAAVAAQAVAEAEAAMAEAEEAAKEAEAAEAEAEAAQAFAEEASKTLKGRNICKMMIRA
In words: IP-MS rep 1. In short, it runs like this:
as §1

Test [5] addresses T5, AT3G10480.3 NAC050 (Arabidopsis thaliana, UniProt Q9SQX9 1-447, limits assumed).
T5 construct: Endogenous protein found by mass spectrometry
T5 sequence (looked up): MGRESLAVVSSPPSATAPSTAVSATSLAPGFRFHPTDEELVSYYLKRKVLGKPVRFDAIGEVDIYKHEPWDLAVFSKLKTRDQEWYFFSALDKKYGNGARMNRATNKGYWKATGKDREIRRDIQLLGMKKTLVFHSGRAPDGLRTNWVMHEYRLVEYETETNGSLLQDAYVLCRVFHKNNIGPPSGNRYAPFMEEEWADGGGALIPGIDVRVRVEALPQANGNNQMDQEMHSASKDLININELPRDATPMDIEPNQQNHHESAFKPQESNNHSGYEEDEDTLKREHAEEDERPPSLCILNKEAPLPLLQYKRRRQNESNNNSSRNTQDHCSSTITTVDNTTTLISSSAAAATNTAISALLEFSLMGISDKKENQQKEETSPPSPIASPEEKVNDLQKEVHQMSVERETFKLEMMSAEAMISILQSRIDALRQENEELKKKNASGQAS
Description: IP-MS rep 1. A digest of the protocol:
as §1

The target of test [6] is T6, AT2G17540.2 TRBIP2 (Arabidopsis thaliana).
T6 construct: Endogenous protein found by mass spectrometry
T6 chain: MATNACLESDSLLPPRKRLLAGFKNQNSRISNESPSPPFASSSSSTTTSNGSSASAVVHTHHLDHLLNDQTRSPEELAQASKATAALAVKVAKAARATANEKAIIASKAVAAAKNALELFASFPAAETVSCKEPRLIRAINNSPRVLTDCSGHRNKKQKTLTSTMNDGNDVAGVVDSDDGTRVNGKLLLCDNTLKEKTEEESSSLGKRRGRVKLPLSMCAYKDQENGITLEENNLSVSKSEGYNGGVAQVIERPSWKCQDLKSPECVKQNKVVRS
Description: IP-MS rep 1. In short, it runs like this: as §1

The target of test [7] is T1, AT3G49850.1 TRB3. Description: IP-MS rep 2. In short, it runs like this: as §1
Test [8] addresses T2, AT5G67580.1 TRB2. Description: IP-MS rep 2. In short, it runs like this:
as §1

Test [9] addresses T3, AT5G08450.1 HDC1. Description: IP-MS rep 2. A digest of the protocol: as §1
Test [10] addresses T4, AT1G49950.3 TRB1. Description: IP-MS rep 2. A digest of the protocol: as §1
Test [11] concerns the target T5, AT3G10480.3 NAC050. In words: IP-MS rep 2. A digest of the protocol:
as §1

The target of test [12] is T6, AT2G17540.2 TRBIP2. In words: IP-MS rep 2. A digest of the protocol: as §1
In another test the target is T7, PIAL2-Myc (Arabidopsis thaliana, UniProt F4JYG0 1-760).
T7 construct: not shown: C-terminal 9XMYC tag and BLRP (pEG302 vector)
T7 sequence: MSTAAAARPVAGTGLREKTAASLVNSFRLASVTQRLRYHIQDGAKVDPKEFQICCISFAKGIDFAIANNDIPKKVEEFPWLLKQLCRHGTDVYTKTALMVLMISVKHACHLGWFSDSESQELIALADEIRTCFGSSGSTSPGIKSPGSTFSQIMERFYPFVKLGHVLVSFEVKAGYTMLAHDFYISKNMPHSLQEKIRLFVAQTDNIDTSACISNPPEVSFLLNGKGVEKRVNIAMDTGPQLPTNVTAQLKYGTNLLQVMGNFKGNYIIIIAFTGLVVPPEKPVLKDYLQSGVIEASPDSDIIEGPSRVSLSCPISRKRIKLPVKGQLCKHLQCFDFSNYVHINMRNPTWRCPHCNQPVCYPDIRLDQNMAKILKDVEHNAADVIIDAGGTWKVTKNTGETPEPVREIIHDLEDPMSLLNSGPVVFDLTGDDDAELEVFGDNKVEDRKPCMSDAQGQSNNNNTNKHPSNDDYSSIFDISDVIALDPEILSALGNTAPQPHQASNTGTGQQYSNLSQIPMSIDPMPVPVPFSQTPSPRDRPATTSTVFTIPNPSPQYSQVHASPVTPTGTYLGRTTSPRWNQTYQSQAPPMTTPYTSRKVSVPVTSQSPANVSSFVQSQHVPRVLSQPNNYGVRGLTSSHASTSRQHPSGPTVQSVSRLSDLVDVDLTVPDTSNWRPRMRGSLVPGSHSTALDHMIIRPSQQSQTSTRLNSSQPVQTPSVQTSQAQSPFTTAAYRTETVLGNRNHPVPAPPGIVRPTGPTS
Description: co-IP, anti-FLAG, crossed lines. The method, then: The Co-IP assays in this study were performed by following previous protocol (see e.g., Wang, Science, 2016) with some modifications. 2 grams of 2-week-old seedling tissue were collected from Arabidopsis transgenic lines: JMJ14-FLAG×TRB1-Myc and TRB1-Myc; MORC6-FLAG×PIAL2-Myc and PIAL2-Myc. The samples were ground into fine powder with liquid nitrogen, resuspended with 10 mL IP buffer, and incubate 20 minutes at 4° C. The lysate was centrifuged and filtered through Miracloth for two times, and the supernatant was incubated with 30 μL anti-FLAG M2 Affinity Gel (Millipore) for 2 hours at 4° C. The anti-FLAG beads were washed with IP buffer for a total of 5 times, and the protein was eluted with 40 μL elution buffer (IP buffer containing 100 μg/mL 3×FLAG peptide as final concentration). The supernatant was mixed with 5×SDS loading buffer and subject to Western blot.

B1: TRBIP1 (bait of the TRBIP1 IP-MS) (other, not shown: small tags and cut ends)
chain: METNPCDMNQLDSDSHLPPRKRLLAGFKKFNSNGINGSSPSDFASSSSTSNSNGSSSASTNVQTHLGNLLSSPFNNDQSPEELVEATRSAAALAVKAAKAARAIANEKALISAKAIAAAKRALELVDSFPKEAMADCKERSPRKNKQKKHVPVELLYSKGQLRDEEDDLARRLHRAIDNTSYPRVLRTSEENGQRYKKQKKNKSVVEGGSSSIIVTGSMKDIAGVVDSDSSYEGLEIARSNRDEADSMLMMEKSGEESNSLVKRRGRVKLKKLPLSICNSRNQENGTSSASPLPVAQPQEDGGAITVIAGSSSWKCQDIKAPECVKQNKAVRS
notes: tag and its position not described; also called TRBIP1-1; TRBIP1-2
Take B1: the IP-MS count worked out at 31 in the test with AT3G49850.1 TRB3 [1]; 66 in the test with AT5G67580.1 TRB2 [2]; 8 with AT5G08450.1 HDC1 [3]; 39 with AT1G49950.3 TRB1 [4]; 2 in the test with AT3G10480.3 NAC050 [5]; 0 in the test with AT2G17540.2 TRBIP2 [6]. The IP-MS count with AT3G49850.1 TRB3 [7] is 19; in the test with AT5G67580.1 TRB2 [8] it was 36; in the test with AT5G08450.1 HDC1 [9] it was 2; in the test with AT1G49950.3 TRB1 [10] it was 15; in the test with AT3G10480.3 NAC050 [11], 0; with AT2G17540.2 TRBIP2 [12], 0.

B2: MORC6-FLAG (other, Arabidopsis thaliana, UniProt Q56Y74 1-663, looked up)
chain: MSHDRSVNVSHDAVIAKPERGTMLQSFSPRSHGSKGYSLPQDSEENRGSVGQSAGQSSTSVVDQVRSPADDAGVTSSSTICPAPVCRQFWKAGSYNDELSSKSQQPNGKNYLHVHPMFLHSNATSHKWAFGAVAELLDNAVDEIQNGATFVIVDKTTNPRDGATALLIQDDGGGMDPQAMRHCMGFGFSDKKSDSAIGRYGNGFKTSTMRLGADVIVFSRHSKNQTLTQSIGLLSYTYLTRTGHDRIVVPILDYEFNASAGEFKTLQDREHFISSLSILLEWSPFSTEAELLQQFDDVGPHGTKVIIYNMWLNSDAKLELDFDSVAEDILIEGSIKKTGSKIVNDHIASRFSYSLRVYLSILYLRIPETFKIILRGKVVEHHNVADDLMHPQYILYKPQAAGSEEALVVTTIGFLKEAPKVNLHGFCVYHKNRLIMPFWQVINYSSSRGRGVVGVLEANFVEPTHNKQDFEKTVLLQKLENRLKEMTVEYWSCHCVLIGYQVNKKPRLQIPQKVQPAGRQALSPPPGFQAVFPQGNTTSLPRVSTQPVLLEKRKEHPDSVASAALKRKVGNDDFTVPGHIRVEQFIHGSASQSQDIETVKLMEENKKLRAKCLDRKVRSQNLEVKAMNLRSELENYKSEYERLMVELQALDLVKDEHRRNVNT
notes: not shown: FLAG tag (3xFLAG-BLRP vector described)
Take B2: the binding result with PIAL2-Myc is listed as “binds”.

The record behind these values is patent publication US20250042956A1 (University of California, published 2025).
